Data on three molecules can be found in PMC12340910, “Structural basis for transport and inhibition of nucleotide sugar transport in pathogenic fungi” (Research Square, 2025).

The target of experiment [1] is T1, CaVrg4; C. albicans Vrg4; GDP-mannose transporter Vrg4 (Candida albicans, UniProt Q5A477).
T1 construct: first 33 residues excluded; expressed in S. cerevisiae BJ5460 from pDDGFP-Leu2D; His-tagged GFP fusion cut by TEV; DDM/DM purified, reconstituted into liposomes; ~37 kDa
T1 sequence (Q5A477 34-371): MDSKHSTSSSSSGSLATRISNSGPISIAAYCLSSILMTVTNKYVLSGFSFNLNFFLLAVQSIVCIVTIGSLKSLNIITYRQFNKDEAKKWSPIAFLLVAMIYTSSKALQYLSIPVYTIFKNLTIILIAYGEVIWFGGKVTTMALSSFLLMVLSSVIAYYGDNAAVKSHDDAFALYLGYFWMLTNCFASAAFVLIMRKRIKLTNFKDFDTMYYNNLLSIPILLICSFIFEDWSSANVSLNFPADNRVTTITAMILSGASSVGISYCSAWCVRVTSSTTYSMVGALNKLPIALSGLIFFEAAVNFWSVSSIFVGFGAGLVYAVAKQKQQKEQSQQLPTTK
The experiment is described as follows: cryo-EM structure, […] Å. The experiment is classed as binding. As to conditions: complex with nanobody NB4, cytoplasmic-facing state; endogenous co-purified ligand; density suboptimal for precise ligand modelling.

Experiment [2] addresses T2, Candida albicans Vrg4, Avi-tagged (C terminus), biotinylated (Candida albicans (UniProt Q5A477, …, UniProt Q5A477)).
T2 construct: also called biotinylated CaVrg4; purified CaVrg4; source: S. cerevisiae BJ5460, purified as the untagged version, biotinylated using BirA ligase; not shown: Avi tag, C-terminal, kept
The experiment in a line: ELISA; dilution series of each nanobody captured by its Myc tag on MaxiSorp plates with protein A and anti-c-Myc antibody; 50 nM biotinylated CaVrg4 added for 40 minutes; streptavidin-peroxidase polymer, TMB, absorbance at 650 nm; KD from the 'one site - total binding' equation. The conditions noted are these: both partners purified. (ELISA stands for enzyme-linked immunosorbent assay.)

As to `Nc1nc2c(ncn2[C@@H]2O[C@H](COP(=O)(O)OP(=O)(O)O[C@H]3O[C@H](CO)[C@@H](O)[C@H](O)[C@@H]3O)[C@@H](O)[C@H]2O)c(=O)[nH]1` [GDP-mannose], the “cryo-EM structure, 3.4 Å” value in experiment [1] was “in the maps obtained for the NB4-bound structure, we observed density consistent with the endogenous ligand”.

B1: Nanobody NB4 (VHH)
VHH: QVQLVESGGGLVQAGGSLRLSCAASGRTFRSYTLGWFRQAPGKEREFVAAIKWSTDTTYYADSVKGRFTISGDNAKNTVYLQMNSLKPEDTAVYFCAARSLSTVIAGPEIPWPYNSWGQGTQVTVSS
notes: source: subcloned into the pSBinit vector and purified; not shown: Myc, C-terminal, kept; His, C-terminal, kept
Broadly, the Kd is the free concentration of one partner at which half of the binding sites on the other are occupied at equilibrium, for simple one-to-one binding. A lower Kd goes with tighter binding. B1: in experiment [2], the dissociation constant Kd is around 10 nM.

B2: Nanobody NB3 (VHH)
VHH: QVQLVESGGGLVQPGGSLRLSCAASGSISEINVMGWYRQAPGKQRELVARITTGGSTNYADSVKGRFTISRDNAKNTVYLQMNSLKPEDTAVYMCNAHRRVVMEWGPLGYDYWGQGTQVTVSS
notes: as for B1
As for B2, the Kd in experiment [2] is around 3 nM.
